The record followed here is patent publication US20200157237A1 (BROAD INSTITUTE, published 2020).

The target in series [1] is T1, Il12rb1 (mouse, UniProt Q60837 20-738).
T1 construct: whole, on cells; Tie to CD5L:p40 rests on loss of staining and of effect in knockout cells; also called Ilrb1
T1 sequence (looked up): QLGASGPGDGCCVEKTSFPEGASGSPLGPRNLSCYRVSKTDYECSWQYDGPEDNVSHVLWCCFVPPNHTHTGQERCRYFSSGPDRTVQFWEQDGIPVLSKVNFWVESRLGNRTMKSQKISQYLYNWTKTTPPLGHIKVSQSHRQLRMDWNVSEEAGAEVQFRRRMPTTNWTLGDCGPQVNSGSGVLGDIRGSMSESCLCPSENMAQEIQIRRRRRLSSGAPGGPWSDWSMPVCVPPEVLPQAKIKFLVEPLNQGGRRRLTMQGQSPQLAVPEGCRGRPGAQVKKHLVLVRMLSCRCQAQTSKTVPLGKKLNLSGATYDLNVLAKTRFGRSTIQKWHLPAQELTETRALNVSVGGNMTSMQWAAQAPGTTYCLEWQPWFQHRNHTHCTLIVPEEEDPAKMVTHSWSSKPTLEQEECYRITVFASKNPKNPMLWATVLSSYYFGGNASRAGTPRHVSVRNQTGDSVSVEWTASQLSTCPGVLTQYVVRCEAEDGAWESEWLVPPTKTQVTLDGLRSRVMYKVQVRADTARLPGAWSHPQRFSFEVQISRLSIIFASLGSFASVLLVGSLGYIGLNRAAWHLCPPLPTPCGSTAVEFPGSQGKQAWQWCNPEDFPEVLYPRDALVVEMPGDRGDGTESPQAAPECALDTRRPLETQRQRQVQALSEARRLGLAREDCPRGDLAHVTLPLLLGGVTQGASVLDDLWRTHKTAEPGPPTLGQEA
As to the kind of experiment: flow cytometry, His-tagged CD5L:p40 and anti-His antibody on T cells of wildtype or Il12rb1KO mice (FIG. 56A). The source says: FIG. 56A-F—Recombinant CD5L:p40 can bind to Th17 cells directly and alters T cell signaling pathways and metabolism. A) recombinant CD5L:p40 (his-tagged) were used to stain pathogenic Th17 cells (IL-1b+IL-6+IL-23),Th1 cells (IL-12) or Th0 cells differentiated from naïve T cells isolated from wildtype or Il12rb1KO mice followed by anti-His antibodies and analysis by flow cytometry. B-D) As Stat3 and Stat4 regulate IL-17 responses, we analyzed pStat3 and pStat4 expression. B-C) CD5L:p40 suppresses pStat3. 28 nM recombinant CD5L:p40 were used to stimulate naïve T cells in the presence of 10 ug/ml of anti-CD3 antibodies (TCR) with or without other indicated cytokines (B) or to stimulate Th17p cells (C) and cells were harvested for phosphoflow preparation and analysis of pStat3 at the indicated time points. D) CD5L:p40 suppresses pStat4 but not pTyk2. Western blotting analysis of pStat4 and pTyk2 expression by Th17p cells (equal protein loaded per lane) differentiated from naïve T cells isolated from wildtype mice and subjected to stimulation by either control (C), CD5L monomer (L), CD5L homodimer (LL), CD5L:p40 (L4) or p40:p40 homodimer (44) for the indicated time. E) CD5L:p40 suppresses pRictorY, pS6 and p38. To study whether CD5L:p40 influence other signaling pathways, we analysed several other phospho-proteins as indicated. […]
In general terms: Flow cytometry measures light scatter and fluorescence of single cells or particles in a stream.

Series [2] deals with the molecule itself. As to the kind of experiment: purification of recombinant CD5L (FIG. 8A).

B1: recombinant CD5L:p40 heterodimer (genetically linked mouse p40-linker-CD5L with His tag) (ligand)
chain: MWELEKDVYVVEVDWTPDAPGETVNLTCDTPEEDDITWTSDQRHGVIGSGKTLTITVKEFLDAGQYTCHKGGETLSHSHLLLHKKENGIWSTEILKNFKNKTFLKCEAPNYSGRFTCSWLVQRNMDLKFNIKSSSSSPDSRAVTCGMASLSAEKVTLDQRDYEKYSVSCQEDVTCPTAEETLPIELALEARQQNKYENYSTSFFIRDIIKPDPPKNLQMKPLKNSQVEVSWEYPDSWSTPHSYFSLKFFVRIQRKKEKMKETEEGCNQKGAFLVEKTSTEVQCKGGNVCVQAQDRYYNSSCSKWACVPCRVRSGGGSGGGSGGGSGGESPTKVQLVGGAHRCEGRVEVEHNGQWGTVCDDGWDRRDVAVVCRELNCGAVIQTPRGASYQPPASEQRVLIQGVDCNGTEDTLAQCELNYDVFDCSHEEDAGAQCENPDSDLLFIPEDVRLVDGPGHCQGRVEVLHQSQWSTVCKAGWNLQVSKVVCRQLGCGRALLTYGSCNKSTQGKGPIWMGKMSCSGQEANLRSCLLSRLENNCTHGEDTWMECEDPFELKLVGGDTPCSGRLEVLHKGSWGSVCDDNWGEKEDQVVCKQLGCGKSLHPSPKTRKIYGPGAGRIWLDDVNCSGKEQSLEFCRHRLWGYHDCTHKEDVEVICTDFDVTGHHHHHHHHGGQ
notes: also called mCD5L:p40; rCD5L:p40
As to B1, the binding result in series [1] was “binds”.

B2: recombinant CD5L monomer with His tag (mCD5L construct) (ligand)
chain: ESPTKVQLVGGAHRCEGRVEVEHNGQWGTVCDDGWDRRDVAVVCRELNCGAVIQTPRGASYQPPASEQRVLIQGVDCNGTEDTLAQCELNYDVFDCSHEEDAGAQCENPDSDLLFIPEDVRLVDGPGHCQGRVEVLHQSQWSTVCKAGWNLQVSKVVCRQLGCGRALLTYGSCNKSTQGKGPIWMGKMSCSGQEANLRSCLLSRLENNCTHGEDTWMECEDPFELKLVGGDTPCSGRLEVLHKGSWGSVCDDNWGEKEDQVVCKQLGCGKSLHPSPKTRKIYGPGAGRIWLDDVNCSGKEQSLEFCRHRLWGYHDCTHKEDVEVICTDFDVTGHHHHHHH
notes: Made by Biolegend in 293E cells, purified on Ni Sepharose and Superdex S200 (monomer fraction); also called soluble CD5L; sCD5L
B2: in series [2], the binding result is listed as “binds”.
